Data on 34 variants can be found in the Human Domainome abundance scans (Beltran et al. 2025).

± gives the uncertainty stated by the source.

The chains are these.
B1: Transcriptional regulator ERG, residues 117 to 197; numbered along this chain, P11308 (parent)
chain: NMTTNERRVIVPADPTLWSTDHVRQWLEWAVKEYGLPDVNILLFQNIDGKELCKMTKDDFQRLTPSYNADILLSHLHYLRE

This data set covers variants of B1. Kind of data set: abundance fitness (aPCA) (normalised: wild type 0, dead -1); higher = more abundant; growth selection in yeast, the domain comes from the species named. The note with it: Homo sapiens.
As to NMTTNERRVIVPADPTLWSTDHVRQWLEWASKEYGLPDVNILLFQNIDGKELCKMTKDDFQRLTPSYNADILLSHLHYLRE, the abundance fitness was -0.015 ± 0.045.

Turning to NMTTNERRVIVPADPTLWSTDHVRQWLEWADKEYGLPDVNILLFQNIDGKELCKMTKDDFQRLTPSYNADILLSHLHYLRE, the abundance fitness was -0.498 ± 0.12.

On to NMTTNERRVIVPADPTLWSTDHVRQWLEWATKEYGLPDVNILLFQNIDGKELCKMTKDDFQRLTPSYNADILLSHLHYLRE, for which the abundance fitness is 0.001 ± 0.064.

For the variant NMTTNERRVIVPADPTLWSTDHVRQWLEWARKEYGLPDVNILLFQNIDGKELCKMTKDDFQRLTPSYNADILLSHLHYLRE, the abundance fitness is -0.054 ± 0.038.

For NMTTNERRVIVPADPTLWSTDHVRQWLEWAQKEYGLPDVNILLFQNIDGKELCKMTKDDFQRLTPSYNADILLSHLHYLRE, the abundance fitness is -0.086 ± 0.064.

For NMTTNERRVIVPADPTLWSTDHVRQWLEWACKEYGLPDVNILLFQNIDGKELCKMTKDDFQRLTPSYNADILLSHLHYLRE, the abundance fitness is -0.111 ± 0.085.

In the case of NMTTNERRVIVPADPTLWSTDHVRQWLEWAHKEYGLPDVNILLFQNIDGKELCKMTKDDFQRLTPSYNADILLSHLHYLRE, the abundance fitness is -0.14 ± 0.1.

On to NMTTNERRVIVPADPTLWSTDHVRQWLEWAWKEYGLPDVNILLFQNIDGKELCKMTKDDFQRLTPSYNADILLSHLHYLRE, for which the abundance fitness was -0.439 ± 0.09.

For NMTTNERRVIVPADPTLWSTDHVRQWLEWAEKEYGLPDVNILLFQNIDGKELCKMTKDDFQRLTPSYNADILLSHLHYLRE, the abundance fitness is -0.154 ± 0.051.

As to NMTTNERRVIVPADPTLWSTDHVRQWLEWAMKEYGLPDVNILLFQNIDGKELCKMTKDDFQRLTPSYNADILLSHLHYLRE, the abundance fitness is -0.003 ± 0.071.

Consider NMTTNERRVIVPADPTLWSTDHVRQWLEWANKEYGLPDVNILLFQNIDGKELCKMTKDDFQRLTPSYNADILLSHLHYLRE, for which the abundance fitness is -0.218 ± 0.11.

For the variant NMTTNERRVIVPADPTLWSTDHVRQWLEWAKKEYGLPDVNILLFQNIDGKELCKMTKDDFQRLTPSYNADILLSHLHYLRE, the abundance fitness turned out to be 0.06 ± 0.059.

On to NMTTNERRVIVPADPTLWSTDHVRQWLEWAIKEYGLPDVNILLFQNIDGKELCKMTKDDFQRLTPSYNADILLSHLHYLRE, for which the abundance fitness amounted to 0.02 ± 0.08.

As for NMTTNERRVIVPADPTLWSTDHVRQWLEWAVKECGLPDVNILLFQNIDGKELCKMTKDDFQRLTPSYNADILLSHLHYLRE, the abundance fitness was -0.186 ± 0.077.

Regarding NMTTNERRVIVPADPTLWSTDHVRQWLEWAVKEDGLPDVNILLFQNIDGKELCKMTKDDFQRLTPSYNADILLSHLHYLRE, the abundance fitness was -0.326 ± 0.1.

With NMTTNERRVIVPADPTLWSTDHVRQWLEWAVKEEGLPDVNILLFQNIDGKELCKMTKDDFQRLTPSYNADILLSHLHYLRE, the abundance fitness is -0.2 ± 0.057.

Take NMTTNERRVIVPADPTLWSTDHVRQWLEWAVKEFGLPDVNILLFQNIDGKELCKMTKDDFQRLTPSYNADILLSHLHYLRE: the abundance fitness is -0.021 ± 0.087.

NMTTNERRVIVPADPTLWSTDHVRQWLEWLVKEYGLPDVNILLFQNIDGKELCKMTKDDFQRLTPSYNADILLSHLHYLRE: the abundance fitness is -0.103 ± 0.046.

With NMTTNERRVIVPADPTLWSTDHVRQWLEWVVKEYGLPDVNILLFQNIDGKELCKMTKDDFQRLTPSYNADILLSHLHYLRE, the abundance fitness is -0.095 ± 0.046.

As for NMTTNERRVIVPADPTLWSTDHVRQWLEWNVKEYGLPDVNILLFQNIDGKELCKMTKDDFQRLTPSYNADILLSHLHYLRE, the abundance fitness was -0.217 ± 0.085.

In the case of NMTTNERRVIVPADPTLWSTDHVRQWLEWHVKEYGLPDVNILLFQNIDGKELCKMTKDDFQRLTPSYNADILLSHLHYLRE, the abundance fitness was -0.108 ± 0.092.

NMTTNERRVIVPADPTLWSTDHVRQWLEWGVKEYGLPDVNILLFQNIDGKELCKMTKDDFQRLTPSYNADILLSHLHYLRE: the abundance fitness was -0.181 ± 0.04.

As for NMTTNERRVIVPADPTLWSTDHVRQWLEWCVKEYGLPDVNILLFQNIDGKELCKMTKDDFQRLTPSYNADILLSHLHYLRE, the abundance fitness is -0.117 ± 0.062.

For NMTTNERRVIVPADPTLWSTDHVRQWLEWQVKEYGLPDVNILLFQNIDGKELCKMTKDDFQRLTPSYNADILLSHLHYLRE, the abundance fitness is -0.018 ± 0.059.

On to NMTTNERRVIVPADPTLWSTDHVRQWLEWFVKEYGLPDVNILLFQNIDGKELCKMTKDDFQRLTPSYNADILLSHLHYLRE, for which the abundance fitness is -0.403 ± 0.14.

In the case of NMTTNERRVIVPADPTLWSTDHVRQWLEWEVKEYGLPDVNILLFQNIDGKELCKMTKDDFQRLTPSYNADILLSHLHYLRE, the abundance fitness is -0.051 ± 0.054.

For NMTTNERRVIVPADPTLWSTDHVRQWLEWWVKEYGLPDVNILLFQNIDGKELCKMTKDDFQRLTPSYNADILLSHLHYLRE, the abundance fitness was -0.324 ± 0.067.

In the case of NMTTNERRVIVPADPTLWSTDHVRQWLEWYVKEYGLPDVNILLFQNIDGKELCKMTKDDFQRLTPSYNADILLSHLHYLRE, the abundance fitness was -0.655 ± 0.2.

On to NMTTNERRVIVPADPTLWSTDHVRQWLEWPVKEYGLPDVNILLFQNIDGKELCKMTKDDFQRLTPSYNADILLSHLHYLRE, for which the abundance fitness was -0.956 ± 0.2.

In the case of NMTTNERRVIVPADPTLWSTDHVRQWLEWDVKEYGLPDVNILLFQNIDGKELCKMTKDDFQRLTPSYNADILLSHLHYLRE, the abundance fitness was -0.884 ± 0.22.

Regarding NMTTNERRVIVPADPTLWSTDHVRQWLEWTVKEYGLPDVNILLFQNIDGKELCKMTKDDFQRLTPSYNADILLSHLHYLRE, the abundance fitness was -0.051 ± 0.058.

For the variant NMTTNERRVIVPADPTLWSTDHVRQWLEWIVKEYGLPDVNILLFQNIDGKELCKMTKDDFQRLTPSYNADILLSHLHYLRE, the abundance fitness is -0.164 ± 0.11.

Take NMTTNERRVIVPADPTLWSTDHVRQWLEWKVKEYGLPDVNILLFQNIDGKELCKMTKDDFQRLTPSYNADILLSHLHYLRE: the abundance fitness was -0.105 ± 0.061.

For NMTTNERRVIVPADPTLWSTDHVRQWLEWSVKEYGLPDVNILLFQNIDGKELCKMTKDDFQRLTPSYNADILLSHLHYLRE, the abundance fitness was -0.103 ± 0.05.
